These results are taken from patent publication US20140315825A1 (GENEMEDICINE, published 2014).

The target of this experiment is T1, soluble Wnt decoy receptor sLRP6E1E2 (FLAG-tagged E1 and E2 extracellular domains of LRP6) (Homo sapiens (Human), UniProt O75581 20-651).
T1 construct: Expressed in the assay cells from the adenoviral vector dE1-k35/sLRP6E1E2 and not added as purified protein; also called soluble LRP6 receptor; decoy Wnt receptor; not shown: FLAG tag
T1 sequence: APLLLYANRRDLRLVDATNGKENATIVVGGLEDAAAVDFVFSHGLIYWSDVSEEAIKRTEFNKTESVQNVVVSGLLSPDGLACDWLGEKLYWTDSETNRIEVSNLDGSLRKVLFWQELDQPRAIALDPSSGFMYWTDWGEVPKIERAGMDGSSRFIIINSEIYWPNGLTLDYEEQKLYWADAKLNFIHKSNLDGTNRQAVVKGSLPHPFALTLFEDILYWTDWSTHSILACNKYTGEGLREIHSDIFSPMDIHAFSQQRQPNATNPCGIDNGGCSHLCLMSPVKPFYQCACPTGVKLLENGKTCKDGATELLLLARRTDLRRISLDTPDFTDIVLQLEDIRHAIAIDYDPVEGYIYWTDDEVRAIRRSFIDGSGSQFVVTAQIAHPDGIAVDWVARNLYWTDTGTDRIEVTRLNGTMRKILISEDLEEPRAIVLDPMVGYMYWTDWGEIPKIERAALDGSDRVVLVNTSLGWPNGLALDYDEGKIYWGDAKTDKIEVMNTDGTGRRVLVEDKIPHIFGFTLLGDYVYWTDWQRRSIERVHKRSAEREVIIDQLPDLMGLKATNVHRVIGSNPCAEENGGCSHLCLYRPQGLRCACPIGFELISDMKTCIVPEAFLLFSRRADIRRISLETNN
The experiment can be described thus: immunoprecipitation of lysates of transduced H322 and H460 cells with anti-Wnt3a or anti-LRP6, then western blot. The procedure: FIG. 1 represents characterization of the decoy Wnt receptor sLRP6E1E2. FIG. 1a is schematic representation of the genomic structure of Ad vectors used. […] Cell culture supernatants were assessed with FLAG- or LRP6-specific Ab. (d) H322 and H460 cells were transduced with dE1-k35/LacZ or dE1-k35/sLRP6E1E2 (50 MOI) for 48 hr. Cell lysates were immunoprecipitated with antisera against Wnt3a (IP: Wnt3a) or LRP6 (IP: LRP6) followed by western blot (WB) analysis with the same antibodies.
Next, binding of sLRP6E1E2 to Wnt3a was assessed in cells transduced with dE1-k35/LacZ or dE1-k35/sLRP6E1E2. Cell lysates were immunoprecipitated with anti-Wnt3a or anti-LRP6 antibodies and analyzed by western blot.
(In general: In western blotting, separated proteins are transferred to a membrane and probed.)

B1: Wnt3a, endogenous in human non-small cell lung cancer cell lines H322 and H460 (ligand, UniProt P56704 19-352, looked up)
chain: SYPIWWSLAVGPQYSSLGSQPILCASIPGLVPKQLRFCRNYVEIMPSVAEGIKIGIQECQHQFRGRRWNCTTVHDSLAIFGPVLDKATRESAFVHAIASAGVAFAVTRSCAEGTAAICGCSSRHQGSPGKGWKWGGCSEDIEFGGMVSREFADARENRPDARSAMNRHNNEAGRQAIASHMHLKCKCHGLSGSCEVKTCWWSQPDFRAIGDFLKDKYDSASEMVVEKHRESRGWVETLRPRYTYFKVPTERDLVYYEASPNFCEPNPETGSFGTRDRTCNVSSHGIDGCDLLCCGRGHNARAERRREKCRCVFHWCCYVSCQECTRVYDVHTCK
notes: Present in cell lysates in the immunoprecipitation; also called Wnt 3a protein
Regarding B1, the binding result is “binds”.
